# Biological target: the molecule itself
# Experiment: X-ray crystallography, crystallographic symmetry applied (self-association, homotrimer)
protein,measurement,value
"NAGLU-kif (recombinant human alpha-N-acetylglucosaminidase expressed in HT1080 cells treated with kifunensine) (enzyme, N-linked high mannose glycans at N261, N272, N435, N503, N526 and N532 (numbered as amino acids 24-743), There is one molecule in the asymmetric unit, and the trimer is generated by crystallographic symmetry; also called NAGLU24-743; Naglu-kif R3) DEAREAAAVRALVARLLGPGPAADFSVSVERALAAKPGLDTYSLGGGGAARVRVRGSTGVAAAAGLHRYLRDFCGCHVAWSGSQLRLPRPLPAVPGELTEATPNRYRYYQNVCTQSYSFVWWDWARWEREIDWMALNGINLALAWSGQEAIWQRVYLALGLTQAEINEFFTGPAFLAWGRMGNLHTWDGPLPPSWHIKQLYLQHRVLDQMRSFGMTPVLPAFAGHVPEAVTRVFPQVNVTKMGSWGHFNCSYSCSFLLAPEDPIFPIIGSLFLRELIKEFGTDHIYGADTFNEMQPPSSEPSYLAAATTAVYEAMTAVDTEAVWLLQGWLFQHQPQFWGPAQIRAVLGAVPRGRLLVLDLFAESQPVYTRTASFQGQPFIWCMLHNFGGNHGLFGALEAVNGGPEAARLFPNSTMVGTGMAPEGISQNEVVYSLMAELGWRKDPVPDLAAWVTSFAARRYGVSHPDAGAAWRLLLRSVYNCSGEACRGHNRSPLVRRPSLQMNTSIWYNRSDVFEAWRLLLTSAPSLATSPAFRYDLLDLTRQAVQELVSLYYEEARSAYLSKELASLLRAGGVLAYELLPALDEVLASDSRFLLGSWLEQARAAAVSEAEADFYEQNSRYQLTLWGPEGNILDYANKQLAGLVANYYTPRWRLFLEALVDSVAQGIPFQQHQFDKNVFQLEQAFVLSKQRYPSQPRGDTVDLAKKIFLKYYPRWVAGSW",binding result,binds

# From patent publication US20150031112A1 (SHIRE HUMAN GENETIC THERAPIES, published 2015)
